T1: EBV病毒颗粒 (gp350 on EB virus particles) (Epstein-Barr virus, UniProt P03200 1-907)
T1 construct: also called EBV颗粒; UV-EBV病毒颗粒
T1 sequence (looked up): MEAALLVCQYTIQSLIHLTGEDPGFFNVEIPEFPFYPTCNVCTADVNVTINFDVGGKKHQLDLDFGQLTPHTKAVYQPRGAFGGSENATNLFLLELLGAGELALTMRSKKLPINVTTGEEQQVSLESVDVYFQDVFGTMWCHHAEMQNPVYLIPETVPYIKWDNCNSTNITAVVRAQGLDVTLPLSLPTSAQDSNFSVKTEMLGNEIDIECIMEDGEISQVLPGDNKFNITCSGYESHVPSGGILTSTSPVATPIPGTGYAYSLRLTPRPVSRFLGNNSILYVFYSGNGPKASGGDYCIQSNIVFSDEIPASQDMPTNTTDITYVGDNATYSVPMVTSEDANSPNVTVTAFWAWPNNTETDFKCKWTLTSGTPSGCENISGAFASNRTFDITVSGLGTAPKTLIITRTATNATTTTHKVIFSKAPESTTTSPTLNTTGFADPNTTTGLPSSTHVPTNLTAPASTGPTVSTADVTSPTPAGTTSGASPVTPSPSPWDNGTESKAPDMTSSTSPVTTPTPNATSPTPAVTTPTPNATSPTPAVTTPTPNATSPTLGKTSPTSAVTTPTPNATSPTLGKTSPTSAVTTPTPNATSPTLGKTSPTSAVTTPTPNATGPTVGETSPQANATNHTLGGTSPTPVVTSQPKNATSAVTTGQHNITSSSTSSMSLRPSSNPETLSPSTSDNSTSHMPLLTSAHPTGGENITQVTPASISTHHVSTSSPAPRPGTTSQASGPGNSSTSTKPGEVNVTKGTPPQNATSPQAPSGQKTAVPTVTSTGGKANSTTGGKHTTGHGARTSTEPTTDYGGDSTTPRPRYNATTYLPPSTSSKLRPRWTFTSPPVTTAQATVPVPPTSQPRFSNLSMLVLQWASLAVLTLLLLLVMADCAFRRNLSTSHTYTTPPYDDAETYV

B1: 单克隆抗体R9 (scFv fused to FLAG tag or hFc) (scFv)
scFv: QSVKESEGGLFKPTDTLTLTCTVSGSSLRSYGVSWVRQAPGTGLEWIGAIGRSGSAYYASWAKSRSTITRNTNDNTVTLKMTSLTAADTATYFCARAYFGNSIGPFNIWGPGTLVTVSSGGGGSGGGGSGGGGSAIVLTQTPSSVSAPVGGTVTINCQASQSVSNLLAWYQQKPGQPPKLLIYGASNLESGVPSRFRGSGSGTQFTLTISGVKAEDVAAYYCHQHSSFPLTFGAGTKVEIK
B2: 单克隆抗体R1 (scFv fused to FLAG tag or hFc) (scFv)
scFv: QSVKESEGGLFKPTDTLTLTCTVSGFSLSSNAISWVRQAPGNGLEYIGYISYRGNTYYASWARSRSTITRNTNENTVTLKMTRLTAADTATYFCARIRSYSRANGHADGFDPWGPGTLVTVSSGGGGSGGGGSGGGGSDVVMTQTPSSVSAAVGGTVTINCQASESISNLLAWYQQKPGQPPKLLIYGASNLESGVPSRFRGSGSGTQFTLTISGVKDEDVATYYCQSGRYAAGATFGAGTNVEIK
notes: also called R1抗体; 单抗R1

Biological target: T1, EBV病毒颗粒 (gp350 on EB virus particles)
Test: ELISA, EBV particles coated, titrated binder

Binder | binding result
B1 | binds
B2 | binds

Reference: patent CN114409766A (AGRICULTURAL UNIV IN CHINA, dated 2022)
